From PMC9768917 come the findings set out here.

Assay [1] concerns the target HALO-FhM28B (E413M) (Fasciola hepatica). The assay is described as follows: SEC; final purification step on a Superose 6 column, 20 mM MOPS, 150 mM NaCl, pH 7.4; elution peak compared with the expected dimeric mass. (In gel filtration, larger molecules generally elute earlier.)
Assay [2] has as its target HALO-FhM28B (Fasciola hepatica M28B metalloprotease, wild type, with N-terminal His-Strep-HALO tag) (Fasciola hepatica). Described as above.

In general, stoichiometry N refers to a count of units in the complex or per binding partner.

In assay [1], HALO-FhM28B (E413M) (enzyme) displayed a stoichiometry N of 2.

Turning to “HALO-FhM28B (Fasciola hepatica M28B metalloprotease, wild type, with N-terminal His-Strep-HALO tag) (enzyme)”, in assay [2], the stoichiometry N turned out to be 2.
